Data: doi:10.1101/2023.05.02.539095 (bioRxiv, 2023)

Columns and labels:
[1] = target: 0317ΔCD (MSMEG_0317 lacking the C-terminal cytoplasmic domain) (M. smegmatis); test: SEC-MALS
[2] = target: 0317ΔNH (MSMEG_0317 lacking the N-terminal TM helix) (M. smegmatis); test: SEC-MALS

Substance	stoichiometry N [1]	stoichiometry N [2]
0317ΔCD (MSMEG_0317 lacking the C-terminal cytoplasmic domain) (domain or fragment)	2	–
0317ΔNH (MSMEG_0317 lacking the N-terminal TM helix) (domain or fragment)	–	2
